{"source": "paper doi:10.1101/2021.01.27.428466", "about": "(bioRxiv, 2021)", "binders": {"B1": {"name": "Sb16 (VHH)", "VHH": "QVQLVESGGGLVQAGGSLRLSCAASGFPVAYKTMWWYRQAPGKEREWVAAIESYGIKWTRYADSVKGRFTISRDNAKNTVYLQMNSLKPEDTAVYYCIVWVGAQYHGQGTQVTVSA"}}, "target": "T1, receptor-binding domain (RBD) of the spike protein of SARS-CoV-2 (SARS-CoV-2, UniProt P0DTC2)", "T1 construct": "also called re-engineered RBD", "experiment": "SEC", "conditions": "both partners purified"}
{"binder": "B1", "values": [{"measurement": "binding result", "value": "binds"}]}
